Test results taken from publication PMC7997005, “Dynamic interplay between the co-opted Fis1 mitochondrial fission protein and membrane contact site proteins in supporting tombusvirus replication” (PLoS Pathogens, 2021).

Molecular target: T1, TBSV Flag-p33 replication protein (tomato bushy stunt virus (TBSV), UniProt P15962 1-296)
T1 construct: TBSV p33 replication protein; co-expressed and co-purified with Flag-p92pol; source: yeast, expressed from a plasmid, in detergent-solubilized membrane fraction
T1 sequence: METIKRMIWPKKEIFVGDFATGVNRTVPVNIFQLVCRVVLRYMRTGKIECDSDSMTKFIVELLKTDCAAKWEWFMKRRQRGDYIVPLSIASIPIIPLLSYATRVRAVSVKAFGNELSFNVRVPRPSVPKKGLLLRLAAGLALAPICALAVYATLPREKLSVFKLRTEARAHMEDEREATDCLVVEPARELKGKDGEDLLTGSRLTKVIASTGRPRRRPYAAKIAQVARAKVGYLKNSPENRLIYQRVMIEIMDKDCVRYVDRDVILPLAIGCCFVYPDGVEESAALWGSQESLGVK
Assay: co-IP; Flag-affinity purification of Flag-tagged replication proteins (TBSV Flag-p33 + Flag-p92pol or CIRV Flag-p36 + Flag-p95pol) from the detergent-solubilized membrane fraction of yeast; samples cross-linked with formaldehyde; co-purified His6-tagged proteins detected with anti-His antibody; WT, fis1Δ, Fis1p- or Dnm1-ZZ-over-expressing yeast; cycloheximide time course
Details: partners not purified

B1: yeast His6-Sac1p (enzyme, S. cerevisiae, UniProt P32368 1-623, looked up)
chain: MTGPIVYVQNADGIFFKLAEGKGTNDAVIHLANQDQGVRVLGAEEFPVQGEVVKIASLMGFIKLKLNRYAIIANTVEETGRFNGHVFYRVLQHSIVSTKFNSRIDSEEAEYIKLLELHLKNSTFYFSYTYDLTNSLQRNEKVGPAASWKTADERFFWNHYLTEDLRNFAHQDPRIDSFIQPVIYGYAKTVDAVLNATPIVLGLITRRSIFRAGTRYFRRGVDKDGNVGNFNETEQILLAENPESEKIHVFSFLQTRGSVPIYWAEINNLKYKPNLVLGENSLDATKKHFDQQKELYGDNYLVNLVNQKGHELPVKEGYESVVHALNDPKIHYVYFDFHHECRKMQWHRVKLLIDHLEKLGLSNEDFFHKVIDSNGNTVEIVNEQHSVVRTNCMDCLDRTNVVQSVLAQWVLQKEFESADVVATGSTWEDNAPLLTSYQNLWADNADAVSVAYSGTGALKTDFTRTGKRTRLGAFNDFLNSASRYYQNNWTDGPRQDSYDLFLGGFRPHTASIKSPFPDRRPVYIQLIPMIICAALTVLGATIFFPKDRFTSSKNLLYFAGASIVLALSTKFMFKNGIQFVNWPKLVDVGFLVVHQTHDKEQQFKGLKYAQSPKFSKPDPLKRD
notes: Sac1p PI4P phosphatase, S. cerevisiae; source: yeast, expressed from a plasmid, in detergent-solubilized membrane fraction
fold of co-purified Sac1p, Fis1p-over-expressing against WT yeast: > 2 fold

B2: yeast His6-Osh6p (natural protein, S. cerevisiae, UniProt Q02201 1-448, looked up)
chain: MGSKKLTVGSDSHRLSKSSFSSNKSSHSATKDQPIDTDDIDEDDESGHNIILNIISQLRPGCDLTRITLPTFILEKKSMLERVTNQLQFPEFLLQAHSEKDPLKRFLYVMKWYLAGWHIAPKAVKKPLNPVLGEYFTAYWDLPNKQQAYYISEQTSHHPPECAYFYMIPESSIRVDGVVIPKSRFLGNSSAAMMDGSTVLQFLDIKDGNGKPEKYVLTQPNVYVRGILFGKMRIELGDHMIIKSPNFQADIEFKTKGYVFGTYDAIEGTVKDYDGNAYYEISGKWNDVMYLKDLKQPRSSPKVFLDTHKESPLRPKVRPLSEQGEYESRKLWKKVTDALAVRNHPVATEEKFQIEDHQRQLAKKRIEDGVEFHPKLFRRSKPGEDLDYCIYKNIPVDEDPEKQIRSILQIAPILPGQQFTDKFFIPAFEKIKSQKKMIENEKQNPAKQ
notes: source: yeast, expressed from a plasmid, in detergent-solubilized membrane fraction
fold of co-purified Osh6p, Fis1p-over-expressing against WT yeast: 3.5 fold more
fold of co-purified Osh6p, fis1Δ against WT yeast: ~4 fold less

B3: yeast His6-Fis1p (natural protein, S. cerevisiae, UniProt P40515 1-155, looked up)
chain: MTKVDFWPTLKDAYEPLYPQQLEILRQQVVSEGGPTATIQSRFNYAWGLIKSTDVNDERLGVKILTDIYKEAESRRRECLYYLTIGCYKLGEYSMAKRYVDTLFEHERNNKQVGALKSMVEDKIQKETLKGVVVAGGVLAGAVAVASFFLRNKRR
notes: Fis1p mitochondrial fission 1 protein, S. cerevisiae; also called HisScFis1; source: yeast, expressed from a plasmid, in detergent-solubilized membrane fraction
fold reduction of co-purified Fis1p when Dnm1p is co-expressed, against yeast without Dnm1p over-expression: ~8 fold
